Molecular target: nucleolin (cell surface, on RD and Rh30 rhabdomyosarcoma cells) (UniProt P19338)
Assay: FACS cell binding of QD conjugate
Settings: overnight 37 C, 5' AminoC6, QD-aptamer 10 nM (Methods; 20 nM in Figure 5b legend) with adherent cells, 12 h/overnight, 5% CO2, conjugates prepared in PBS pH 7.4/1% BSA

Chain of nucleolin (cell surface, on RD and Rh30 rhabdomyosarcoma cells) (P19338 whole entry): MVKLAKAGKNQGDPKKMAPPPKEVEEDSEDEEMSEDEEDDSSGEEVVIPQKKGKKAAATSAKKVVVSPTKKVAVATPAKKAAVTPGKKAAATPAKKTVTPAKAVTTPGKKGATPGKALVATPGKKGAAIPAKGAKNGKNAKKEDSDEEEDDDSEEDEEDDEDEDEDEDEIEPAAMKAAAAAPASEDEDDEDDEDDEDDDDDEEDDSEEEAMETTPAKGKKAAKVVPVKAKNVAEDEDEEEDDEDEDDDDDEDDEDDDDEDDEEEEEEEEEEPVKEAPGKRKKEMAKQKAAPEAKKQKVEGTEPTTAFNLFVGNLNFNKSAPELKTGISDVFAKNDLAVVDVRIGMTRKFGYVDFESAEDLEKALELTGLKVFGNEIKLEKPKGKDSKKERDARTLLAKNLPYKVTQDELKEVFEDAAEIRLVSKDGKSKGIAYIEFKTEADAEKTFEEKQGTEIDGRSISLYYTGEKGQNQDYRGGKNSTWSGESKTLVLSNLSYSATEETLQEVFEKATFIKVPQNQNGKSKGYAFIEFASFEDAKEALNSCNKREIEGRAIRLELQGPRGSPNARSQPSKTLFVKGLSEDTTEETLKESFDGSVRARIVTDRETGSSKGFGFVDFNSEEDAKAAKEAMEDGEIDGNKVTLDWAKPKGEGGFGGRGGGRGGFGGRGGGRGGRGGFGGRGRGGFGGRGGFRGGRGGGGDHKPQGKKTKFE

Sequence: TTGGTGGTGGTGGTTGTGGTGGTGGTGG [AS1411 (AGRO100)]
- binding signal (fold over QD-NC-AS1411) (RD cells): 8.8
- binding signal (fold over QD-NC-AS1411) (Rh30 cells): 2.2

Reference: publication PMC9600270, “Quantum Dot-Based Screening Identifies F3 Peptide and Reveals Cell Surface Nucleolin as a Therapeutic Target for Rhabdomyosarcoma” (Cancers, 2022)
